Laboratory results: patent publication CN102559636A

Biological target: CD6分子 (CD6 on the cell surface) (human) (UniProt P30203)
Assay: cell-based or functional assay

人源化抗CD6单克隆抗体T1h (Itolizumab) (antibody)
HUT-78生长抑制率 (CCK-8, 72 h, 100 ng/mL Hum-zap) at T1h 0.8 μM: 11.4%
细胞生长抑制率 of HUT-78 (CCK-8, 72 h, 100 ng/mL Hum-zap) at T1h 8×10-2, 8×10-3 and 8×10-4 μM: > 65%
细胞生长抑制率 of HUT-78 (CCK-8, 72 h, 100 ng/mL Hum-zap) at T1h 8×10-5, 8×10-6, 8×10-7 and 8×10-8 μM: < 10%
